Like-named read-outs stand apart in the source and are kept apart here.
B1: IFN-γ (protein, UniProt P01579 24-161, looked up)
Interferon gamma: QDPYVKEAENLKKYFNAGHSDVADNGTLFLGILKNWKEESDRKIMQSQIVSFYFKLFKNFKDDQSIQKSVETIKEDMNVKFFNSNKKKRDDFEKLTNYSVTDLNVQRKAIHELIQVMAELSPAAKTGKRKRSQMLFRG

How the values were obtained:
Type in all cases: in vivo, BALB/c mice
vaccinia virus [1] = details: for survival of vaccinia infected mice: 5×10^3 U/mouse/day i.n., 5 days, started one day before infection, 8 LD50, 21 days monitoring
vaccinia virus [2] = details: 8 LD50
vaccinia virus [3] = details: IFN-γ 5,000 to 20,000 U i.n., daily for five days from one day after infection; 50 LD50

Row | Molecule | survival of vaccinia infected mice (vaccinia virus [1]) [%] | protection against severe vaccinia infection (vaccinia virus [1]; IFN-α 5,000 U intranasal, 50 LD50 as printed in b34 (FIG. 2)) | survival of vaccinia infected mice (vaccinia virus [2]; IFN-γ 2,000 U only, i.n., 5 days from one day after infection) [%] | protection of vaccinia infected mice (vaccinia virus [2]; IFN-γ 5,000 U) [%] | protection against severe vaccinia infection (vaccinia virus [3])
1 | IFN-α | 100 | 70-80% |  |  | 
2 | B1 | 90 |  | 80 | 100 | 70-80%

Source: patent US20060024271A1 (priority 2004, published 2006)
